In patent US20250129404A1, “RAPID, COLORIMETRIC ASSAY TO DETECT ACETYLTRANSFERASE ACTIVITY IN BIOLOGICAL SAMPLES” (THE FEINSTEIN INSTITUTES FOR MEDICAL RESEARCH, priority 2023, published 2025):

T1: recombinant human ChAT (rChAT) (Homo sapiens, UniProt P28329)
T1 construct: recombinant human ChAT corresponding to residue 119-748; His tag (N-histidine tag) (N); made in house; host or cells: E. coli BL21-Gold (DE3)
T1 sequence (P28329 119-748): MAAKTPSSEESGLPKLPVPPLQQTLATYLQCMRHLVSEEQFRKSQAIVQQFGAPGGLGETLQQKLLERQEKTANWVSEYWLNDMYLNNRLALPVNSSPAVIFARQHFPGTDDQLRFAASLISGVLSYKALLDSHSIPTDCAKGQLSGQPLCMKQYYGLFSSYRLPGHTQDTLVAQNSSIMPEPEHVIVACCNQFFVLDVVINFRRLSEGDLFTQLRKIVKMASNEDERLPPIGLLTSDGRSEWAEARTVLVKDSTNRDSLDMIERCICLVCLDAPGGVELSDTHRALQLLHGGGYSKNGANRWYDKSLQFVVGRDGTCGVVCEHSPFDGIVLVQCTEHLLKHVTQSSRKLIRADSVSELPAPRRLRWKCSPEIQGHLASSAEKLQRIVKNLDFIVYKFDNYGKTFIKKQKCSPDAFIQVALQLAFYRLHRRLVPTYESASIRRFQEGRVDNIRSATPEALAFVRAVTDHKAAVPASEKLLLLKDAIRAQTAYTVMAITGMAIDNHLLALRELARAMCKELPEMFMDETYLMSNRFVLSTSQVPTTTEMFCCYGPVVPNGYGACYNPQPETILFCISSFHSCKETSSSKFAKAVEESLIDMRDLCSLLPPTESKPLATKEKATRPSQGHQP

T2: recombinant human ChAT (rChAT), substrate choline (Homo sapiens, UniProt P28329)
T2 construct: recombinant human ChAT corresponding to residue 119-748; His tag (N-histidine tag) (N); made in house; host or cells: E. coli BL21-Gold (DE3)
T2 sequence (P28329 119-748): T1 sequence (P28329 119-748)

B1: PEG-ChAT: recombinant ChAT PEGylated using MS (PEG) 12 reagent (conjugate, UniProt P28329 1-748, looked up)
Choline O-acetyltransferase: MGLRTAKKRGLGGGGKWKREEGGGTRGRREVRPACFLQSGGRGDPGDVGGPAGNPGCSPHPRAATRPPPLPAHTPAHTPEWCGAASAEAAEPRRAGPHLCIPAPGLTKTPILEKVPRKMAAKTPSSEESGLPKLPVPPLQQTLATYLQCMRHLVSEEQFRKSQAIVQQFGAPGGLGETLQQKLLERQEKTANWVSEYWLNDMYLNNRLALPVNSSPAVIFARQHFPGTDDQLRFAASLISGVLSYKALLDSHSIPTDCAKGQLSGQPLCMKQYYGLFSSYRLPGHTQDTLVAQNSSIMPEPEHVIVACCNQFFVLDVVINFRRLSEGDLFTQLRKIVKMASNEDERLPPIGLLTSDGRSEWAEARTVLVKDSTNRDSLDMIERCICLVCLDAPGGVELSDTHRALQLLHGGGYSKNGANRWYDKSLQFVVGRDGTCGVVCEHSPFDGIVLVQCTEHLLKHVTQSSRKLIRADSVSELPAPRRLRWKCSPEIQGHLASSAEKLQRIVKNLDFIVYKFDNYGKTFIKKQKCSPDAFIQVALQLAFYRLHRRLVPTYESASIRRFQEGRVDNIRSATPEALAFVRAVTDHKAAVPASEKLLLLKDAIRAQTAYTVMAITGMAIDNHLLALRELARAMCKELPEMFMDETYLMSNRFVLSTSQVPTTTEMFCCYGPVVPNGYGACYNPQPETILFCISSFHSCKETSSSKFAKAVEESLIDMRDLCSLLPPTESKPLATKEKATRPSQGHQP
modifications: PEGylated with MS(PEG)12
notes: recombinant ChAT PEGylated using MS (PEG) 12 reagent
B2: rChAT: recombinant human ChAT residue 119-748 with N-histidine tag, expressed in E. coli (protein, UniProt P28329 1-748, looked up)
Choline O-acetyltransferase: B1 Choline O-acetyltransferase

Columns and labels:
[1] = biological target: T1, recombinant human ChAT (rChAT); assay: Choline acetyltransferase (ChAT) colorimetric activity assay; format: biochemical
Method: Recombinant ChAT protein and ChAT PEGylation. All recombinant ChAT (rChAT) protein used was produced as described previously (10). Briefly, recombinant human ChAT corresponding to residue 119-748 (EC2.3.1.6, UnitProt 28329-3) with a N-histidine tag was expressed in E. coli BL21-Gold (DE3) cells and purified using high affinity Ni-charged columns. The purified recombinant ChAT was dialyzed at 4° C. in buffer containing 0.2×PBS, 10% glycerol and 0.5 mM TCEP (tris(2-carboxyethyl) phosphine), and subjected to extensive Triton X-114 extraction to remove contaminating endotoxins. After purification, PEGylation was carried out using MS (PEG) 12 reagent to extend the plasma half-life of the enzyme (10). Following PEGylation, the protein was dialyzed in buffer and once again extracted with Triton-X-114 to remove contaminating endotoxins. A Bradford protein assay (Bio-Rad) was used to determine rChAT protein concentration. Commercial recombinant ChAT protein was purchased from My BioSource.
Choline Acetyltransferase activity assay. An assay was developed to measure ChAT activity using an adapted version of the colorimetric assay (Reactions 1-3) (13).
Briefly, biological samples and choline chloride standards are diluted in assay buffer (containing 10 mM Tris-HCl, 150 mM NaCl, 1 mM EDTA, and 0.05% Triton X-100). 100 μl of each standard and 40 μl of each sample are added in triplicate to a 96-well plate. […] The assay is developed by addition of 150 μL of 3′3′5′5′ Tetramethylbenzidine (TMB) to all wells, and the plate is immediately analyzed spectrophotometrically at 650 nm. ChAT Activity is determined from the interpolated amount of choline depleted during the reaction, divided by the reaction time and sample volume, and multiplied by the sample dilution factor (Equation 1). In all biological samples, ChAT activity is normalized to total protein concentration, measured using Bradford protein assay (Bio-Rad) and is represented as nmol/min/mg of total protein. […]

TNF = assay: Acute endotoxemia (LPS), TNF by ELISA; format: in vivo, mouse; conditions: 1 mg/kg i.p. 30 min prior to 0.3 mg/kg LPS, 90 min after LPS
Method: Endotoxemia. Lipopolysaccharide (LPS, Escherichia coli 0111: B4; Sigma) was sonicated for 30 min, vortexed and administered intraperitoneally (LD50 7 mg/kg). Animals were euthanized by CO2 asphyxiation 90 min post-LPS administration and blood was collected by cardiac puncture using heparinized syringes. Blood samples were kept on ice and centrifuged for 10 minutes at 5000 g. Plasma TNF levels were quantified using a commercially available ELISA (Invitrogen). Plasma total protein concentration was determined using a Bradford Protein Assay (Bio-Rad). Sepsis scores were determined at respective timepoints up to 72 hours following endotoxin administration as described previously (19), where a maximum score of 28 per mouse denotes the greatest clinical sickness score.
Administration of PEG-ChAT and Anti-ChAT Neutralizing Antibody. Pegylated recombinant ChAT protein or a custom made monoclonal anti-ChAT antibody (GenScript) was administered intraperitoneally at a 1 mg/kg dose 30 minutes prior to LPS administration. Acute endotoxemia was induced with a dose of 0.3 mg/kg LPS. Animals were returned to their home cages and euthanized 90 minutes after LPS administration.

[2] = tested on: DSS-induced experimental colitis in C57Bl/6 male mice; assay: DSS colitis model; format: in vivo, mouse; conditions: for histological damage (inflammation severity, crypt damage, extent of inflammation): blinded H&E scoring, day 14 (FIG. 4E-F)
Method: DSS Colitis Model. DSS (DSS salt, colitis grade (MW: 36000-50000), MP Biomedicals, CA) was added to the drinking water in a final concentration of 3% (wt/vol) for 7 days. The water was changed to regular water on day 8 and maintained till the end of the experiment. Survival and the disease activity index (DAI) were evaluated daily in a blinded manner. On day 14, mice were euthanized under CO2 asphyxiation and blood and tissue were collected. Colons were removed, cleaned, and sectioned longitudinally. The luminal contents were removed with cold phosphate buffered saline (PBS). Starting from the most distal end (rectum) the colon was rolled with luminal side facing upward, resulting in a “Swiss roll” with the distal end in the center and the proximal colon in the outer side of the roll. The Swiss roll was held together with a small pin and placed in 10% buffered formalin overnight at 4° C. The fixed tissue was then embedded in paraffin, sectioned at 10 μm and stained with hematoxylin and eosin. Histological analysis was carried out in a blinded manner by three independent researchers. The degree of colon inflammation was scored under the light microscope (Zeiss, Germany) using the following criteria: inflammation severity (0—none; 1—mild; 2—moderate; 3—severe), inflammation extent (0—none; 1—mucosal; 2—mucosal and submucosal; 3—transmural), Crypt damage (0—none; 1—basal, ⅓ damaged; 2—basal, ⅔/damaged; 3—crypt loss), damage distribution (0-0%; […]; 3-51-75%; 4-76-100%). Each mouse tissue was scored over 6 different sites of the colon. Serum cytokine levels (IL-6, TNFα and MCP-1) were analyzed using mouse V-Plex Biomarker Group 1 array, and the assay was performed according to the manufacturer's instructions.

[3] = biological target: T2, recombinant human ChAT (rChAT), substrate choline; assay: Michaelis-Menten kinetic constants, Coenzyme A detection assay; format: biochemical; conditions: rChAT 2 μg/mL; Michaelis-Menten / Lineweaver Burke (FIG. 7C-D)
Method: Determination of Michaelis-Menten kinetic constants. To determine the Km constants for rChAT samples, a previously published Coenzyme A detection assay was used (12). Briefly, Coenzyme A standard was diluted in assay buffer. 100 μl of each standard and 40 μl of each sample was added to the 96-well plate in triplicate. 60 μl of Cocktail A was added to all sample wells. Immediately, 50 μl of Cocktail B was added to all sample and standard wells. The plate was immediately quantitated spectrophotometrically at 324 nm every 30 seconds for 30 minutes. Enzyme velocity was quantified as CoA formed (nmol/min/ml).
Data analysis and statistics. Data were analyzed using Graphpad Prism 9.0 software using two-tailed unpaired […] for comparisons between 2 groups or two-way ANOVA or mixed-effects model followed with Šídák's multiple comparisons test for comparisons of 3 or more groups. Michaelis Menten kinetic constants were determined using the Michaelis-Menten approximation to calculate Km and Vmax from a velocity vs. substrate relationship. Correlation coefficients were calculated using a nonparametric Spearman Correlation. For all analyses, P≤0.05 was considered statistically significant.

hypertensive animals = conditions: background statement; cited from earlier work

Molecule	IC50 ([1]; preincubation of 0.4 mg/mL rChAT with inhibitor, room temperature 30 minutes (FIG. 7E)) [nM]	serum TNF vs vehicle (TNF)	spleen TNF vs vehicle (TNF)	serum TNF vs vehicle (TNF; listed as PEG-ChAT antibody)	disease activity index (DAI) vs vehicle ([2]; 1 mg/kg i.p. twice daily from day 7, from day 9 (FIG. 4C))	severity of colitis ([2]; 1 mg/kg i.p. twice daily from day 7 to day 14)	weight loss vs vehicle ([2]; 1 mg/kg i.p. twice daily from day 7 to day 14 (FIG. 4B))	histological damage (inflammation severity, crypt damage, extent of inflammation) [2]	colon length ([2]; day 14 (FIG. 4D))	circulating IL-6 vs vehicle ([2]; serum, day 14 (FIG. 5A))	circulating TNF vs vehicle ([2]; serum, day 14 (FIG. 5B))	circulating MCP-1 vs vehicle ([2]; serum, day 14 (FIG. 5C))	detected activity after thermal denaturing, in comparison to native preparation ([1]; 70° C. for 30 minutes (FIG. 7F), P<0.01)	enzymatic activity compared to a commercially available ChAT ([1]; FIG. 7B, P<0.01)	Vmax [3]	blood pressure (hypertensive animals)
C[N+](C)(C)CCC(=O)c1cccc2ccccc12 [alpha-NETA, reference compound]	148	–	–	–	–	–	–	–	–	–	–	–	–	–	–	–
B1	–	significantly attenuates	decrease	significantly ameliorated	significant reduction	significantly reduces	significant reduction	attenuates	significantly improves	significantly reduced	significantly reduced	significantly reduced	–	–	–	–
B2	–	–	–	–	–	–	–	reduced	–	–	–	–	significantly reduced	significant increase	0.05 Δ CoA (nmol/min)	normalizes
